Format in all cases: biochemical
Experiment [1] can be described thus: Substrate specificity assay of purified luciferase, ZS2/F-CTZ luminescence ratio. The settings on record: for ZS2 luminescence intensity to F-CTZ luminescence intensity: purified prokaryotically expressed luciferase 1 μg/ml, substrates 100 μM, microplate reader. As to the method:
(§1) Protein concentration was accurately determined using the BCA quantification kit (Thermo Scientific™ Pierce™ BCA Protein Assay Kit), and luciferase was diluted to 1 μg/ml with diluent (50 mM Tris-HCl pH 8.0, 100 mM NaCl, 0.1% (v/v) Tween-20) and 10 μL was added to black 96-well plates, which was then added with 90 μL of the respective substrates, coelenterazine (purchased from Baiaolaibo), fluorinated coelenterazine, and coelenterazine derivatives ZS2 and ZS26 that were diluted to 100 μM with the same solution, and the luminescence intensity was read from the luminescence module with a microplate reader. The substrate specificity of the mutants was compared with the activity ratio of ZS2/F-CTZ and ZS26/F-CTZ. Table 10 below lists results of the mutation sites and substrate specificity of ZS26/F-CTZ and ZS2/F-CTZ of the dominant mutant of Pleuromamma xiphia luciferase.
(§2) pEE12.4 Pxluc WT and mutant pEE12.4 Pxluc P26-95, as well as the coupled products SA-Pxluc WT and SA-Pxluc P26-95 were subjected to the activity assay according to the method described in Example 5.

Experiment [2] can be described thus: Substrate specificity assay of purified luciferase, ZS26/F-CTZ luminescence ratio. The settings on record: for ZS26 luminescence intensity to F-CTZ luminescence intensity: purified prokaryotically expressed luciferase 1 μg/ml, substrates 100 μM, microplate reader. As to the method: as §1, §2
The nature of experiment [3]: Activity assay of Pxluc expressed in eukaryotic cells. The settings on record: expressed in eukaryotic cells (Expi-CHO); FIG. 12. As to the method:
as §1, §2

Experiment [4] is described as follows: Protein activity assay for Pleuromamma xiphia luciferase expressed in prokaryotic cells. The settings on record: protein expressed in OrigamiB (DE3) or BL21 (DE3), Gluc as control, FIG. 6. Here is the method:
The concentration of protein was accurately determined using a BCA quantification kit (Thermo Scientific™ Pierce™ BCA Protein Assay Kit), and the above purified luciferase was diluted with diluent (50 mM Tris-HCl pH 8.0, 100 mM NaCl, 0.1% (v/v) Tween-20). The protein expressed by the pET28a-Pxluc WT plasmid was diluted to 12 μg/ml, and the proteins expressed by the pCold WT Pxluc plasmid and pCold WT-NS Pxluc plasmid were diluted to […]. 10 μL of each protein was added to a black 96-well plate, which was then added with 90 µL of the respective substrates, coelenterazine (purchased from Baiaolaibo), fluorinated coelenterazine, and coelenterazine derivatives ZS2, ZS26 (the structural formula of each compound is shown in FIG. 5) that were diluted to 100 µM with the same solution, and the luminescence intensity was read from the luminescence module with a microplate reader. Gluc expressed in OrigamiB (DE3) competent cells was known to have good luminescence activity, and thus it was used as a control group. […] Therefore, the luminescence activity of Pleuromamma xiphia luciferase without a signal peptide to coelenterazine is similar to that of Gluc to coelenterazine. […] Subsequent experiments were performed with Pleuromamma xiphia luciferase without a signal peptide.

The results in this text go back to patent US20250207107A1, “LUCIFERASE MUTANT AND USE THEREOF” (DGI TECH (QING DAO) CO., LIMITED, priority 2022, published 2025).

B1: P25-1: Pxluc mutant without signal peptide, G98L, Q99R (SEQ ID NO: 2 numbering) (protein)
chain: MYIKVWFGLACLSLVLAQPTENKQESHIVDSDLDGDRGRKLPGKKLPIEVLKIMEANARRAGCTRGCLICLSKIKCTAKMKRYIPGRCHTYEGDKSILRGGIGGPIVDIPEIIGFKNMEPMDQFIAQVDLCADCTTGCLKGLANVRCNDLLKKWLPDRCAGFADKIQNEVDSIKGMAGDR
modifications: signal peptide removed; (WT Pxluc)
For the molecule B1, the “ZS2 luminescence intensity to F-CTZ luminescence intensity” value in experiment [1] was 21.808. Also, the “ZS26 luminescence intensity to F-CTZ luminescence intensity” value in experiment [2] was determined as 23.647.

B2: Pxluc WT: wild-type luciferase for eukaryotic expression, with signal peptide, 6×His tag and Avitag (SEQ ID NO: 28) (protein)
chain: MYIKVWFGLACLSLVLAHHHHHHGSQPTENKQESHIVDSDLDGDRGRKLPGKKLPIEVLKIMEANARRAGCTRGCLICLSKIKCTAKMKRYIPGRCHTYEGDKSIGQGGIGGPIVDIPEIIGFKNMEPMDQFIAQVDLCADCTTGCLKGLANVRCNDLLKKWLPDRCAGFADKIQNEVDSIKGMAGDRGSGLNDI
modifications: misc_feature 1..585 pEE12.4
Take B2: the “activity of catalyzing the substrates ZS2, ZS26” value in experiment [3] was “had the activity of catalyzing the substrates”.

B3: pCold WT-NS Pxluc: wild type Pleuromamma xiphia luciferase without a signal peptide, SEQ ID NO: 4, prokaryotic expression (protein)
chain: QPTENKQESHIVDSDLDGDRGRKLPGKKLPIEVLKIMEANARRAGCTRGCLICLSKIKCTAKMKRYIPGRCHTYEGDKSIGQGGIGGPIVDIPEIIGFKNMEPMDQFIAQVDLCADCTTGCLKGLANVRCNDLLKKWLPDRCAGFADKIQNEVDSIKGMAGDR
modifications: WT-NS Pxluc
Regarding B3, the “luminescence value / luminescence activity to coelenterazine” value in experiment [4] (listed as Pleuromamma xiphia luciferase without a signal peptide) is on record as “higher activity”; in experiment [4] (listed as pCold WT NS Pxluc) it was “highest luminescence value”. The “ZS2 luminescence intensity to F-CTZ luminescence intensity” value in experiment [1] amounted to 3.56. Further, in experiment [1] (text summary of Table 10, FIG. 8), the “substrate specificity for ZS2/F-CTZ” value is recorded as “about 3.56 fold”. Further, in experiment [2], the “ZS26 luminescence intensity to F-CTZ luminescence intensity” value is given as 1.77. Moreover, in experiment [2] (text summary of Table 10, FIG. 7), the “substrate specificity for ZS26/F-CTZ” value is recorded as “about 1.77 fold”.
